B1: Rho guanine nucleotide exchange factor 7 (Homo sapiens), Q14155 (parent)
chain: MNSAEQTVTWLITLGVLESPKKTISDPEGFLQASLKDGVVLCRLLERLLPGTIEKVYPEPRSESECLSNIREFLRGCGASLRLELLFPPSQPPQHLVTTILLSASTFDANDLYQGQNFNKVLSSLVTLNKVTADIGLGSDSVCARPSSHRIKSFDSLGSQSLHTRTSKLFQGQYRSLDMTDNSNNQLVVRAKFNFQQTNEDELSFSKGDVIHVTRVEEGGWWEGTLNGRTGWFPSNYVREVKASEKPVSPKSGTLKSPPKGFDTTAINKSYYNVVLQNILETENEYSKELQTVLSTYLRPLQTSEKLSSANISYLMGNLEEICSFQQMLVQSLEECTKLPEAQQRVGGCFLNLMPQMKTLYLTYCANHPSAVNVLTEHSEELGEFMETKGASSPGILVLTTGLSKPFMRLDKYPTLLKELERHMEDYHTDRQDIQKSMAAFKNLSAQCQEVRKRKELELQILTEAIRNWEGDDIKTLGNVTYMSQVLIQCAGSEEKNERYLLLFPNVLLMLSASPRMSGFIYQGKLPTTGMTITKLEDSENHRNAFEISGSMIERILVSCNNQQDLQEWVEHLQKQTKVTSVGNPTIKPHSVPSHTLPSHPVTPSSKHADSKPAPLTPAYHTLPHPSHHGTPHTTINWGPLEPPKTPKPWSLSCLRPAPPLRPSAALCYKEDLSKSPKTMKKLLPKRKPERKPSDEEFASRKSTAALEEDAQILKVIEAYCTSAKTRQTLNSTWQGTDLMHNHVLADDDQPSLDSLGRRSSLSRLEPSDLSEDSDYDSIWTAHSYRMGSTSRKSCCSYISHQN

Variants of: B1
Conditions: with rac1_human RAC1, P63000

Row | Variant | effect of a mutation on the interaction
1 | P340E | increasing interaction

From IntAct's records for PubMed 24792722
